According to publication PMC7265457, “A disulfide constrains the ToxR periplasmic domain structure, altering its interactions with ToxS and bile-salts” (Scientific Reports, 2020):

Target: T1, V. cholerae ToxS periplasmic domain tagged with an N-terminal chitin binding domain (V. cholerae, UniProt P24003 26-173)
T1 construct: also called CBD-ToxSp
T1 sequence: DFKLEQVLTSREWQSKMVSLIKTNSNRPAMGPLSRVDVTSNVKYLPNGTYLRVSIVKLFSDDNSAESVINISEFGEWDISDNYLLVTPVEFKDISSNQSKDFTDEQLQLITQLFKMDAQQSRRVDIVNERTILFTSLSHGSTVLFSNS
Assay: pull-down
Details: both partners purified

B1: V. cholerae non-disulfide bonded ToxR periplasmic domain (domain or fragment)
chain: TNPSQTSFKPLTVVDGVAVNMPNNHPDLSNWLPSIELCVKKYNEKHTGGLKPIEVIATGGQNNQLTLNYIHSPEVSGENITLRIVANPNDAIKVCE
notes: also called Vc-ToxRp
In the case of B1, the “amount pulled down (buffer) relative to Vc-dbToxRp with CDC” value is reported as 0.22 relative level.
